Source: the RNAGym collection of RNA variant scans (doi:10.7554/elife.80360)

B1: Hairpin Ribozyme (parent)
chain: GUCCUCUUUCACGUGCGCGUGAAAGAGAGAAGUGAACCAGAGAAACACACGUUGUGGUAUAUUACCUGGUA

Variants of: B1
Experiment: self-cleavage, relative activity (ratio to wild type); higher = more cleavage; co-transcriptional

Variant	self-cleavage
GUCCUCUUUCACGUGCGGGUGAAAGAGAGAAGUGAACCAGAGAAACACACGUUGUGGUAUAUGACCUGGUA	0.27
GUCCUCUUUCACGUGCGCGUGAAAGAGAGAAGGGAACCAGAGAAACACACGUUGUGGUAUAUUACCUGGGA	0.111
GUCCUCUCUCACGUGCGCGUGAAAGAGAGAAGUGAACCAGAGAAACACACGUUGUGGUAUAUUACCUGGGA	0.35
GUCCUCUUUCACGUUCGCGUGAAAGAGAGACGUGAACCAGAGAAACACACGUUGUGGUAUAUUACCUGGUA	0.118
GUCCUCUUUCACGUGCGCGUGCAAGAGAGAAGUGAACCAGAGAAACACACGUUGUGGUAUAUUACCUGGUA	0.848
GUCCUCUUUCACGUGCGCGUGAACGAGAGAAGUGAACCAGAGAAACACACGUUGUGAUAUAUUACCUGGUA	0.24
GUCCUCUUUCACGUGCGCGUGAAAGAGAGAAGUGAACCAGAAAAACACACGUUGUGGUAUAUUAGCUGGUA	0.132
CUCCUGUUUCACGUGCGCGUGAAAGAGAGAAGUGAACCAGAGAAACACACGUUGUGGUAUAUUACCUGGUA	0.249
GUCCUCUUUCACGUGCUCGUGAAAGAGAGAAGUGAACCAGAGAAACACACGGUGUGGUAUAUUACCUGGUA	0.8
GUCCUCUUUCACGUGCGCGCGAAAGAGAGAAGUGAACCAGAGAAACACACGAUGUGGUAUAUUACCUGGUA	0.957
GUCCUCUUACACGUGCGCGUGAAAGAGAGAAGUGAACCAGAGAAACACACGUUGUGGUAUAUUAUCUGGUA	0.335
GUCCUCUUUCACGUGCGCGUGAAAGAGAGAAGUGUACCAGAUAAACACACGUUGUGGUAUAUUACCUGGUA	0.109
GUCCUCUUUCACGUGCGCGUGAAAGAGUGAAGUGAACCAGAGAAACACAAGUUGUGGUAUAUUACCUGGUA	0.213
CUCCUCUUUCACGUGCGCGUGAAAGAGAGAAGUUAACCAGAGAAACACACGUUGUGGUAUAUUACCUGGUA	0.344
GUCCUCUUUCGCGUGCGCGUGAAAGAGAGAAGUGAACCAGAGAAACACACGUUGUGGUACAUUACCUGGUA	1
GUCCUCUUUCACGUGCGCGUGAAAGAGAUAAGUGAACCAGAGAAACACACGUUGUGGCAUAUUACCUGGUA	0.18
GUCCUCUUUCACGUGCGCGUGACAGAGAGAAGUGAACCAGAGAAACACACGUUGUGGUAUUUUACCUGGUA	0.204
GUCAUCCUUCACGUGCGCGUGAAAGAGAGAAGUGAACCAGAGAAACACACGUUGUGGUAUAUUACCUGGUA	0.147
GUCCUCUUUCACGUGCGCGUGACAGAGAGAAGUGAACCAGAGAAACACACGUUGCGGUAUAUUACCUGGUA	0.184
GUCCGCCUUCACGUGCGCGUGAAAGAGAGAAGUGAACCAGAGAAACACACGUUGUGGUAUAUUACCUGGUA	0.143
GUCCUCGUUCACGUGCGCGUGAAAGAGACAAGUGAACCAGAGAAACACACGUUGUGGUAUAUUACCUGGUA	0.134
GUCCUCUUUCACGUGCGCGUGAAAGAGAGAAGUGAACCAGAGAAACACACCUUGUGCUAUAUUACCUGGUA	0.152
GUCCUCUUUCACGUGCGCGUGAAGGAGAGAAGUGAACCAGAGAAACACACGUUGUGGUAUAUUCCCUGGUA	0.17
GUCCUCUUUCACGUGCGCGUGAAAGAGUGAAGUAAACCAGAGAAACACACGUUGUGGUAUAUUACCUGGUA	0.873
GUCCUCUUUCACGUACGCGUGAAAGAGAGAAGUGAACCAGAGAAACACACGUUGAGGUAUAUUACCUGGUA	0.146
GUCCUCUUCCACGUGCGCGUGAAAGAGAGAAGCGAACCAGAGAAACACACGUUGUGGUAUAUUACCUGGUA	0.104

Variant	self-cleavage
GUCAUCUUUCACGUGCGCGUGAAAGAGAGAAGUGAACCAGAGAAACACACUUUGUGGUAUAUUACCUGGUA	0.148
GUCCUCUUUCGCGUGCGCGUGAAAGAGAGAAGUGAACCAGAGAAACACACGUUGAGGUAUAUUACCUGGUA	0.191
GUCCUCUUUCACGUGCGCGUGAAAGAUAGAAGUGAACCAGUGAAACACACGUUGUGGUAUAUUACCUGGUA	0.554
GUCCUCUUUCACGUGCGCGUGAACGAGAGAAGUGAACCAGAGAAACACACGUUGUGGUAAAUUACCUGGUA	0.76
GUCCUCUUUCACGUCCGCGUGAAAGAGAGAAGUGAACCAGAGCAACACACGUUGUGGUAUAUUACCUGGUA	0.225
GUCCUCUUUCACGUGCGUGUGAAAGAGUGAAGUGAACCAGAGAAACACACGUUGUGGUAUAUUACCUGGUA	0.606
GUCGUCUUUCACGUGCGCGUGAAAGAGAGCAGUGAACCAGAGAAACACACGUUGUGGUAUAUUACCUGGUA	0.178
GUCCUCUUUCACGUGCGCGUGAAAGAAAGAAGUGAACCAGAGAAACACUCGUUGUGGUAUAUUACCUGGUA	0.112
GUCCUCUUUCACGUGCUCGUGAAAGAGAGAAGUGAACCAGAGAAACACACGUUUUGGUAUAUUACCUGGUA	0.579
GUCCUCUUUCACGUGCGCGUGAAAGAGAGAAGUGAACCAGAGAAACACACGUUCUGGUAUAUUCCCUGGUA	0.104
GUCCUCUUUCACGUGCGCGUGAAAGAGAGAAGUGAACCAGAGAAACACACGUUGUGGUAUAUUACUUGGGA	0.297
GUCCUCUUUCACGUGCGCGUGUAAGAGAGAAGUGAACCAGAGAAACACACGUUGUGGUAUAUUACCUGCUA	0.219
GUCCUCUUACACGUGCGCGUGAAAGAGAGAAGUGAACCAGAGAAACACACGUUGUGGUAUAUUACUUGGUA	0.266
GUCCUCUUUCACGUGCGCCUGAAAGAGAGAAGUGAACCACAGAAACACACGUUGUGGUAUAUUACCUGGUA	0.191
GUCCUCGUUCACGUGCACGUGAAAGAGAGAAGUGAACCAGAGAAACACACGUUGUGGUAUAUUACCUGGUA	0.849
GUCCUCUUUCACGUGCGCGUGAGAGAGAGAAGUGAACCAUAGAAACACACGUUGUGGUAUAUUACCUGGUA	0.278
GUCCUCUUUCACGUGCGCGUCAAAGAGAGAAGGGAACCAGAGAAACACACGUUGUGGUAUAUUACCUGGUA	0.238
GUCCUCUUUCACGUGCGCGUGAAAGAGAGAAGUGAACCAGAGAAACACACGUUGUCGUAUAUUAACUGGUA	0.274
GUCUUCUUUCACAUGCGCGUGAAAGAGAGAAGUGAACCAGAGAAACACACGUUGUGGUAUAUUACCUGGUA	0.238
GUCCUCUUUCACGUGCGCGUGAAAGAGAGAAGUGAACCAGAGAAACACACGUUAUGGUACAUUACCUGGUA	0.912
GUCCUCUUUCACGUGCGCGUGAAAGAGAGAAGUGAACCAGAGAAACACCCGUUGUGGUCUAUUACCUGGUA	0.168
GUCCUCUUUCACGUGCGCGUGAAAGAGAGAAGUGAACAAGAGAAACACACGUUGCGGUAUAUUACCUGGUA	0.116
GUCCUCUUUCGCGUGCGCGUGAAAGAGAGAAGUGAACCAGAGAAACACACGUUGUGGUAUAUUACCAGGUA	0.243
GUCCUCUUUCACGUGCGCGUGAAAGAGAGAAGUGAACCAGAGAAACACACGUUGUGGUUUAUUACCUGGUG	0.156
GUCCUCUUUCACGUGCGCGUGAAAGAGAGAAGUGAACCAGAGAAACACACGUUGUGGUAUAUUAACUUGUA	0.292
GUCCUCUUUCACGUGCGCGUGAAAGAGAGAAGUGAACCAGAGAAACCCACGUUGUGUUAUAUUACCUGGUA	0.275

Variant	self-cleavage
GUCCUCCUUUACGUGCGCGUGAAAGAGAGAAGUGAACCAGAGAAACACACGUUGUGGUAUAUUACCUGGUA	0.9
GUCCUCUUUCACGAGCGCGUGAAAGAGAGAGGUGAACCAGAGAAACACACGUUGUGGUAUAUUACCUGGUA	0.52
GUCCUCUUUCACGUGCGCGUGAAAGAGAGAAGUGAACCAGAGAAACACACGUUGUGGUAUAUAACCUGGGA	0.151
GUCCUCUUUCACGUGCGCGUGAAAGAGAGAAGUGAACCAUAGAAGCACACGUUGUGGUAUAUUACCUGGUA	0.132
AUCCUCUUUCACGUGCGCGUGAAAGAGAGAAGUGAACCAGAGAAACACACGUUGUCGUAUAUUACCUGGUA	0.282
GUCCUCUUUAACGUGCGCGUGAAAGAGACAAGUGAACCAGAGAAACACACGUUGUGGUAUAUUACCUGGUA	0.16
GUCCUCUUUCACGUGCGCGUGAAAGAGAGAAGUGAACCAGAGAAACACACGUCGUGGGAUAUUACCUGGUA	0.948
GUCCUCUUUCACGUGCGCGUGAAAGAGAGAAGUGAACCAGAGAGACAGACGUUGUGGUAUAUUACCUGGUA	0.115
GUCCUCUUUUACGUGCGCGUGAAAGAGAGAAGUGAACCAGAGAAACACGCGUUGUGGUAUAUUACCUGGUA	0.422
GUCCUCUUUCACGUGCGCGUGAAAGAGAGAAGUGAACCAGAGGAACACACGUUGUGGUAUAUUCCCUGGUA	0.191
GUCCUCUUUCACGUGCGCGUGAAAGAGAGAAGUGAACCAGUGAAACACACGUUGUGGUAUAUUACCCGGUA	0.456
GUCCUCUUUCACGCGCGCGUGAAAGAGAGAAGUGAACCAGAGAAACACUCGUUGUGGUAUAUUACCUGGUA	0.134
GUCCUCUUUCACGUGCGCGUGAAAGAGAGAAGUGAUCCAGAGAAACACACGUUGUGGUAGAUUACCUGGUA	0.246
GUCCUCUUUCACGUGCGCGUGAAAGAGAGAAGUGAACCAGAGAAACACACGUUGUGGUUUAUUCCCUGGUA	0.149
GUCCUCUUUAACGUGCGCGUGAAAGAGAGAAGUGUACCAGAGAAACACACGUUGUGGUAUAUUACCUGGUA	0.56
GUCCUCUUUCAAGUGCGCGUGAAAGAGAGAAGUGAACCAGAGACACACACGUUGUGGUAUAUUACCUGGUA	0.0806
GUCCCCUUUCACGUGCGCGUGAAAGAGAGAAGUGAACCAGAGAAACACACGUUGUGGUAUAUUACCUGGAA	0.594
GUCCUCUUUCACGUGCGCGUGAAAGAGAGAAGUUAACCAGAGAAACACACGUUGUGGUAUAUUAACUGGUA	1.57
GUCCUCUUUCACUUGCGCGUGAAAGAGAGAAGUGAACCAGAGAAACACACGUUGUUGUAUAUUACCUGGUA	0.135
GUCCUCUUACACGUGCGCGUGAAAGAGAGAAGUGAACCAGAGAAGCACACGUUGUGGUAUAUUACCUGGUA	0.172
GUCCUCUUUCACGUGCGCGUGAAAGAGAGAAGUGAACCAGGGAAACACCCGUUGUGGUAUAUUACCUGGUA	0.0938
GUCCUCUUUCACGUGCGCGUGAAAGAGAGGAGUGAACCAGAGAAACACGCGUUGUGGUAUAUUACCUGGUA	0.0332
GUCCUCUUUCACGUGCGCGUGAAAGAGAGAAGUGAACCUGAGAAACACACGUUGUGGUAUAUUCCCUGGUA	0.177
GUCCUCUCUCACGUGCGCGUGAAAGAGAGAAGUGAACCAGAGAAACACACGUUGUGGUAUAUGACCUGGUA	0.188
